Test results published in patent publication US20190077860A1 (EISAI R AND D MANAGEMENT, published 2019).
Substitutions are numbered along the chain they refer to. One block for each binder: values may come before it.

What was measured:
Assay in all cases: ELISA
[1] = molecular target: T1, human EphB6 extracellular region-SEAP-His protein (human, UniProt O15197 32-594)
T1 construct: extracellular domain; also called hEphB6-SEAP-His
T1 sequence (looked up): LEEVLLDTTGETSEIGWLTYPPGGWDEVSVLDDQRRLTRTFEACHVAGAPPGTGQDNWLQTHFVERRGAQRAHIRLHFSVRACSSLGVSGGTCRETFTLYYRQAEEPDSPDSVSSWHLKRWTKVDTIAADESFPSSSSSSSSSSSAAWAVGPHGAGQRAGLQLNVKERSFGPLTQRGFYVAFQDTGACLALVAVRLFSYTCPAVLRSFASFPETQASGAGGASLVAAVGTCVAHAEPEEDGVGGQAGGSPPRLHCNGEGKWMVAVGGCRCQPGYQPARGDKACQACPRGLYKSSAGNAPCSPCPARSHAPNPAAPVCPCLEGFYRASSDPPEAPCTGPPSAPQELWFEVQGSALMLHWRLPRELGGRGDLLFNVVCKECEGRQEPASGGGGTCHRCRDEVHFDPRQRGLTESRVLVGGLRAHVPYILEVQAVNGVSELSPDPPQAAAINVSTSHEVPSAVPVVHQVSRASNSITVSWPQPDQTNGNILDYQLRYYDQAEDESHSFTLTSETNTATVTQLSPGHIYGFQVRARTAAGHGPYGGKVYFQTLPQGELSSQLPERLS

[2] = molecular target: T2, human EphA5 extracellular region-SEAP-His protein (human, UniProt P54756 25-573)
T2 construct: extracellular domain; also called hEphA5-SEAP-His
T2 sequence (P54756 25-573): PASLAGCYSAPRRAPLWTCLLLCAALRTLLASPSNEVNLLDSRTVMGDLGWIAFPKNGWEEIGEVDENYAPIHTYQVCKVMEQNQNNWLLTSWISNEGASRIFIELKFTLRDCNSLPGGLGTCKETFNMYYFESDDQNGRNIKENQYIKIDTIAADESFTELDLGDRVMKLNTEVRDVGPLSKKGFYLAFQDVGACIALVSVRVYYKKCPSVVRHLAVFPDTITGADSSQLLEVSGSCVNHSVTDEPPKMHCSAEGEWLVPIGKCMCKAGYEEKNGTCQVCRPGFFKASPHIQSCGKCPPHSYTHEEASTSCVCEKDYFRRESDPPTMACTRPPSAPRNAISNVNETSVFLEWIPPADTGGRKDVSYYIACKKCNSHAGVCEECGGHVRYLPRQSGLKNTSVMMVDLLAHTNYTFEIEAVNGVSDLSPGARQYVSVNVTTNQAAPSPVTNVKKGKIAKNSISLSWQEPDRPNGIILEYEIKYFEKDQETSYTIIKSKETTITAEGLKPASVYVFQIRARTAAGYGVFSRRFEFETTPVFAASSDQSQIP

[3] = molecular target: T3, human EphA6 extracellular region-SEAP-His protein (human, UniProt Q9UF33 23-550)
T3 construct: extracellular domain; also called hEphA6-SEAP-His
T3 sequence (looked up): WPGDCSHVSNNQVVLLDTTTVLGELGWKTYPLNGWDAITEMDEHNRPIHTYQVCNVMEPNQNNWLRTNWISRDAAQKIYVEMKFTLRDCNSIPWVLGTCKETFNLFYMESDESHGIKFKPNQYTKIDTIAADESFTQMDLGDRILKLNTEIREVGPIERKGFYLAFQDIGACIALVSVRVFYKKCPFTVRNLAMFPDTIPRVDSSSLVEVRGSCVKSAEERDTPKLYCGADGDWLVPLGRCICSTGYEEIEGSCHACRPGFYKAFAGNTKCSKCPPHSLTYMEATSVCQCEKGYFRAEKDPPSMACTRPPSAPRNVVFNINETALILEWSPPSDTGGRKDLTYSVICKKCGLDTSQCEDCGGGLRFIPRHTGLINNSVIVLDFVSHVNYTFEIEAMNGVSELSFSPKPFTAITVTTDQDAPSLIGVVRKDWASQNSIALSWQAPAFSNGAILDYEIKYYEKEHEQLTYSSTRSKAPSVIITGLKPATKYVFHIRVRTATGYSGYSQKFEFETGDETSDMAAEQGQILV

[4] = molecular target: T4, human EphB2 extracellular region-SEAP-His protein (human, UniProt P29323 19-543)
T4 construct: extracellular domain; also called hEphB2-SEAP-His
T4 sequence (looked up): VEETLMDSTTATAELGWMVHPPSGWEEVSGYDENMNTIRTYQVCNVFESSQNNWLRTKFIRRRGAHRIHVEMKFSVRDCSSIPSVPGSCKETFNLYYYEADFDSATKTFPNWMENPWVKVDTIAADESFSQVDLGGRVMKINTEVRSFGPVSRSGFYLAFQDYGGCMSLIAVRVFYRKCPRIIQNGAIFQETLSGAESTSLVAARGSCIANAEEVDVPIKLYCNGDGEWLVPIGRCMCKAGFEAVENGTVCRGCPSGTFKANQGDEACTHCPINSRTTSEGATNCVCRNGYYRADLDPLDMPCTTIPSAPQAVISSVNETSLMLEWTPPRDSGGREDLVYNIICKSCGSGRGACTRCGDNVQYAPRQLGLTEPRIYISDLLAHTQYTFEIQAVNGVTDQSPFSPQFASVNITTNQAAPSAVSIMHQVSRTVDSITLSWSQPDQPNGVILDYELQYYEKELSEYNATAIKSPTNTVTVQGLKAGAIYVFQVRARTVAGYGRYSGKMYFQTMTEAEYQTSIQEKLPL

[5] = molecular target: T5, human EphB3 extracellular region-SEAP-His protein (human, UniProt P54753 34-559)
T5 construct: extracellular domain; also called hEphB3-SEAP-His
T5 sequence (looked up): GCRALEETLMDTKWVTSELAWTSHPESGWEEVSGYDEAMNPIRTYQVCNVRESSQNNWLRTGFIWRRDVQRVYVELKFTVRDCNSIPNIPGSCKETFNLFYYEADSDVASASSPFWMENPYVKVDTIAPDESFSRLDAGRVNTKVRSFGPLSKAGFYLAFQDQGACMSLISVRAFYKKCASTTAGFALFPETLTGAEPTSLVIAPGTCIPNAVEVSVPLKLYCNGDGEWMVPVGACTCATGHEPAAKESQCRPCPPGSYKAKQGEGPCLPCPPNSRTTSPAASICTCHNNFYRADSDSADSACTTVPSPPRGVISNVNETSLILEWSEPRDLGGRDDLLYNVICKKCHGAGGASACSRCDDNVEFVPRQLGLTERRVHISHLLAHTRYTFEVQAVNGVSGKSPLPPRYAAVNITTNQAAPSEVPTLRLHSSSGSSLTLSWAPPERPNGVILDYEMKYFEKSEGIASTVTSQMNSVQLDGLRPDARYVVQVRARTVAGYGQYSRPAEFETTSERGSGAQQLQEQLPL

A450 as % of hEphA4-SEAP-His [1]: 4.9%
A450 as % of hEphA4-SEAP-His [2]: 5%
A450 as % of hEphA4-SEAP-His [3]: 6%
A450 as % of hEphA4-SEAP-His [4]: 4.9%
A450 as % of hEphA4-SEAP-His [5]: 4.8%
B1: humanized antibody No. 84 (antibody, human IgG1, kappa)
heavy: QVQLVQSGSELKKPGASVKVSCKASGYTFTDYSMHWVRQAPGQGLEWMGWINTETGEPTYADDFKGRFVFSLDTSVSTAYLQISSLKAEDTAVYYCARIPLYYYGSRYWYFDVWGQGTTVTVSSASTKGPSVFPLAPSSKSTSGGTAALGCLVKDYFPEPVTVSWNSGALTSGVHTFPAVLQSSGLYSLSSVVTVPSSSLGTQTYICNVNHKPSNTKVDKRVEPKSCDKTHTCPPCPAPPAAAPSVFLFPPKPKDTLMISRTPEVTCVVVDVSHEDPEVQFNWYVDGVEVHNAKTKPREEQFNSTFRVVSVLTVVHQDWLNGKEYKCKVSNKGLPAPIEKTISKTKGQPREPQVYTLPPSREEMTKNQVSLTCLVKGFYPSDIAVEWESNGQPENNYKTTPPMLDSDGSFFLYSKLTVDKSRWQQGNVFSCSVMHEALHNHYTQKSLSLSPG
light: DIQMTQSPSSLSASVGDRVTITCRASENIYRNLAWYQQKPGKAPKLLLYAATNLADGVPSRFSGSGSGTDYTLTISSLQSEDFATYYCQHFWGTPWTFGQGTKVEIKRTVAAPSVFIFPPSDEQLKSGTASVVCLLNNFYPREAKVQWKVDNALQSGNSQESVTEQDSKDSTYSLSSTLTLSKADYEKHKVYACEVTHQGLSSPVTKSFNRGEC
notes: human Ig kappa; also called L1-5/HK1

A450 as % of hEphA4-SEAP-His [1]: 5.2%
A450 as % of hEphA4-SEAP-His [2]: 5.4%
A450 as % of hEphA4-SEAP-His [3]: 10.8%
A450 as % of hEphA4-SEAP-His [4]: 5.3%
A450 as % of hEphA4-SEAP-His [5]: 5.4%
B2: humanized antibody No. 140 (antibody, human IgG2)
heavy: QVQLVQSGSELKKPGASVKVSCKASGYTFTDYSMHWVRQAPGQGLKWMGWINTETGEPTYAQGFTGRFVFSLDTSVSTAYLQISSLKAEDTAVYYCARIPLYYYGSRYWYFDVWGQGTTVTVSSASTKGPSVFPLAPSSRSTSESTAALGCLVKDYFPEPVTVSWNSGALTSGVHTFPAVLQSSGLYSLSSVVTVPSSNFGTQTYTCNVDHKPSNTKVDKTVERKSCVECPPCPAPPAAAPSVFLFPPKPKDTLMISRTPEVTCVVVDVSHEDPEVQFNWYVDGVEVHNAKTKPREEQFNSTFRVVSVLTVVHQDWLNGKEYKCKVSNKGLPAPIEKTISKTKGQPREPQVYTLPPSREEMTKNQVSLTCLVKGFYPSDIAVEWESNGQPENNYKTTPPMLDSDGSFFLYSKLTVDKSRWQQGNVFSCSVMHEALHNHYTQKSLSLSPG
light: B1 light with L48V, S80P
notes: human Ig kappa; also called L1-4/HA2

A450 as % of hEphA4-SEAP-His [1]: 5.4%
A450 as % of hEphA4-SEAP-His [2]: 5.3%
A450 as % of hEphA4-SEAP-His [3]: 9%
A450 as % of hEphA4-SEAP-His [4]: 5.2%
A450 as % of hEphA4-SEAP-His [5]: 5.2%
B3: humanized antibody No. 141 (antibody, human IgG2)
heavy: B2 heavy with K46E, Q62D, G63D, T65K
light: B1 light with L48V, S80P
notes: human Ig kappa; also called L1-4/HK1

A450 as % of hEphA4-SEAP-His [1]: 5.7%
A450 as % of hEphA4-SEAP-His [2]: 5.7%
A450 as % of hEphA4-SEAP-His [3]: 8.6%
A450 as % of hEphA4-SEAP-His [4]: 5.7%
A450 as % of hEphA4-SEAP-His [5]: 5.9%
B4: humanized antibody No. 86 (antibody, human IgG1, kappa)
heavy: B1 heavy with V2I, E46K
light: B1 light
notes: human Ig kappa; also called L1-5/HK4

A450 as % of hEphA4-SEAP-His [1]: 5.9%
A450 as % of hEphA4-SEAP-His [2]: 5.7%
A450 as % of hEphA4-SEAP-His [3]: 10%
A450 as % of hEphA4-SEAP-His [4]: 5.7%
A450 as % of hEphA4-SEAP-His [5]: 5.6%
B5: humanized antibody No. 139 (antibody, human IgG2)
heavy: B2 heavy with K46E
light: B1 light with L48V, S80P
notes: human Ig kappa; also called L1-4/HA1

A450 as % of hEphA4-SEAP-His [1]: 5.2%
A450 as % of hEphA4-SEAP-His [2]: 5.1%
A450 as % of hEphA4-SEAP-His [3]: 7.6%
A450 as % of hEphA4-SEAP-His [4]: 5.9%
A450 as % of hEphA4-SEAP-His [5]: 5.1%
B6: humanized antibody No. 90 (antibody, human IgG1, kappa)
heavy: B1 heavy
light: B1 light with K45Q, S80P
notes: human Ig kappa; also called L1-6/HK1
